Laboratory results: article PMC4038622

How the values were obtained:
[1] = biological target: VP4 spike protein, unprocessed precursor, rotavirus strain SA11 (clone SA11-C4111) (simian rotavirus strain SA11); experiment: cryo-EM structure; single-particle three-dimensional reconstruction with icosahedral symmetry of vitrified purified virions (NTR-TLP and TR-TLP of strains SA11 and OSU), 200 kV; virions assembled in infected MA104 cells and purified in CsCl gradients; 11.9-15.4 Å (FSC 0.3)
[2] = biological target: VP4 spike protein, unprocessed precursor, porcine rotavirus strain OSU (clone OSU-C5111) (porcine rotavirus strain OSU) (UniProt P11114); experiment: as above

Row | Substance | stoichiometry N [1] | stoichiometry N [2]
1 | VP4 spike protein, unprocessed precursor, rotavirus strain SA11 (clone SA11-C4111) (natural protein) | 3 | –
2 | VP4 spike protein, unprocessed precursor, porcine rotavirus strain OSU (clone OSU-C5111) (from UniProt P11114 1-776) (natural protein) | – | 3
